Reference: the nanobody polyreactivity screen of Harvey et al. (2022)

Test: yeast display, Sf9 membrane polyspecificity reagent, FACS + sequencing; frameworks hold sequencing errors
How it was run: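 Polyreactivity labels are assigned by the sorting gate from which each nanobody was recovered. The gates were low and high (top ~1%), set on anti-HA fluorescence for expression and streptavidin fluorescence for reagent binding. Before sorting, galactose-induced (36–48 hours) yeast display cells were stained for 1 hour at 4 °C with 10% biotinylated, detergent-solubilized Sf9 membrane reagent.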

Sequence | polyreactivity (PSR sort gate)
QVQLVESGGGLVQAGGSLRLSCAASGSTFSFYAMGWYRQAPGKERELVAAIDSGGRTKYADSVKGRFTISRDNAKNTVYLLMNSLKPEDTAVYYCAAVFRGWWLYDYWGQGTQVTVSS | low polyreactivity
QVQLVESGGGLVQAGGSLRLSCAASGRIFVRYAMGWYRQAPGKEREWVAVSTTGGARTRDADSVKGRFTISRDNAKNSVYLQMNSLKPEDTGVYYCAAQTYSQRWYDYWGQGTQVTVSS | high polyreactivity
QVQLVESGGGLVQAGGSLRLSCAASGRIFGPYTMGWYRQAPGKERELVAAISWSGGSTYYADSVKGRFTISRDNAKNTVYLQMNSLKPEDTAVFYCNADHPFPQYEGGSWGQGTQVTVSS | low polyreactivity
QDLLVESGGGLVQAGGSLGLSCAASGRIFSIYAMGWYRLAPGKERELVAAITRGGRTNYADSVKGRFTISRDNAKNTDYLQMISLKPEDTAVYYCADRLIDGVVKPYDYWGQGTQVTVSS | low polyreactivity
QVQLVESGGCLVQAGGSLRLSCAASGRIFYRYAMGWSRQAPGKVRELVATISWSGGSTYYAHSVKGRFTISRDNAKYTVYLQLNSLKPEDTAVYYCNAAYGNVSRVYYLIEHDYWGQGTQVTVSS | high polyreactivity
QVHLVESGGGLVQAGGSLRLSCAASGFIFNYYAMGWYRQAPGKERELVAAISWRGTSTYYADSVKGRFTISRDNAKNTVYLQMNSLKPEDNAVYYCAAAKYPYVRRAWNFVGYDYWGQGTQVTVSS | high polyreactivity
QVQLVESGGGLVQAGGSLRLSCAASGIIFLRNTMGWNRQAPGKERELVASISRRGGSTYYADSVKGRFTISRDNAKNTVYFQLNSLNPEDTAVYYCAATVRGKRSTYDYWGQGTQVTVSS | high polyreactivity
QVQLVESGGGLVQAGGSLRLICAASGRTLDYYAMGWYRQAPGKERELVGAISQSDDSTYYADSVKGRFTISRDNSKNTVYLQMNILKPEDTAVNYCAAEIELFSPDGVGIYWYVYWGQGTQVYVSS | high polyreactivity
QVQLVESGGGLVQAGGSLRLSCAASGSSFVYNVMGWYRPAPGKERELVAAIRWRGGSTYADSVKGRFTISRDNAKNTVYLQMNSLKPEDTAVYYCAAGIPRYWYAGHYDYWGQGTQVTVSS | low polyreactivity
QVQLVESGGGLVQAGGSLRLSCAASGSTFRWYAMGWYRQAPGKERELVAAISRSGGNTYYADSVKGRFTISRDNAKNTVYLQMNSLKPEDTAVYYCAARKLYGSPEHGYWGQGTQVTVSS | high polyreactivity
QVQLVESGGGLVQAGGSLRLSCAASGSTFTRYVMGWYRQAPGKERELVAAISKRGGSTYYADSVKGRFTISRDNAKNTVYLQMNSLKPEDTAVYYCNRVSRAPFDYWGQGTQVTVSS | high polyreactivity
QVQLVESGGGLVQAGGSLRLSCAASGFIFDEYAMGWYRQAPGKERELVAAISWSGSRTYYADSVKGRFTISRDNAKNTVYLQMNSLKPQDTAVDYCAKVTAVGAGRRNYWGQGTQVTVSS | low polyreactivity
QVQLVESGGGLVQAGGSLRLSCAASGRIFYYNAMGWYRQAPGKERELVASITWSGARTYYADSVKGRFTISRDNAKNTVYLQMNSLKPEDTAVYYCNAATSYYTYTYGYWGQGTQVTVSS | high polyreactivity
QVQLVESGGGLVQAGGSLRLSCAASGSIFQAYVMGWYRQAPGTERELVATIDRRGGITYYADSVKGRFTISRDNAKNNVYLQMNSLKPEDTAVYYCATALIVLGPSRYEYWGQGTQVTVSS | high polyreactivity
QVQLVESGGGLVQAGGSLRLSCAASGYTFYRYAMGWYRQAPGKERELVARISRSGGSTFYADSVKGRFTISRDNAKNTVYLQMNSLKPEDTAVYYCNAKQYSPYYLVIYHYWGQGTQVTVSS | high polyreactivity
QVQLVESGGGLVQAGGSLRLSCAASGRTFYFNAMGWYRQAPGKERELVAAISGGGRTYYADSVKGRFTISRDNAKNTVYLQMNSLKPEDTAVYYCNVRRWYTYPLEKSNYWGQGTQVTVSS | high polyreactivity

Sequence | polyreactivity (PSR sort gate)
QVQLVESGGGLVQAGGSLRLSCAASGRNFRWYAMGWYRQAPGKERELVAAITRGDITNYADSVKGRFTISRDNAKKTVYLQMNSLKPEDTAVYYCNAQWYDIYDYWGQGTQVTVSS | high polyreactivity
QVQLVESGGGLVQAGGSLRLSCAASGSTYRYTMGWYRQAPGKERELVAAITGSAGRTYYADSVKGRFTISRDNAKNTVYLQMNSLKPEDTAVYYCNKDRPRKFWDYYYWGQGTQVTVSS | high polyreactivity
QVQLVESGGGLVQALGSLRLSCAASGTTFNSNVMGWYRPAPGKERELVAGNNTTYYADSVKGRFTISRDNAKNTVYLQMNSLKPEDTAVYYCNGSEDAPAIEYLAPDGHDGYWGQGTQVTVSS | low polyreactivity
QVQLVESGGGLVQAGGSLRLSCAASGITFGRKTMGWYRQAPGKERELLAAIDSGGNTYADSVKGRFTISRDNAKNTDYLEMNSLKPEDTAVYYCAVDGGEFYSYGYWGLGTQVTVSS | low polyreactivity
QVQLEESGGGLVQAGGSLRLSCAASGFTLEYYAMGWYRKAPGKERELVAVITESDGNTYYADSVKGRFTISRDNAKNTVYLQMNSLKPEDTAVYYCAAEYRDGYRFSYDYWGQGTQVTVSS | low polyreactivity
QVQLVESVGGLVQAGGSLRLSCAASGSIFVKNAMGWYRQAPGKERELVAVITIRTATTYYADSVKGRFTISRDNAKNTVYLQMNSLKPEDTAVYYCAAAKRQRGYLQREYDYWGQGTQVTVSS | low polyreactivity
QVQLVESGGGLVQAGGSLRISCAASGSIFRWNAMGWYRQAPGKERELVAAINWSGGSTYYADSVKGRFTISRDNAKNTVYLQMNSLKPEDTAVYYCAVDYWSGITWVEYWGQGTQVTVSS | high polyreactivity
QVQLVDSGGGLVQAGGSLRLSSAASGFTLLYNAMGSYRQAPGKERELVSTITGGGTTYADSVKGRFTISRDNAKNTVYLQMNSLKPEDTAVYYCATSRVWRLYRYLPQYRGYYYWGQGTQVTVSS | high polyreactivity
QVQLVESGGGLVQAGGSLRLSCAASGIYINAMGWYRQAPGKERELVAAISRGGSTYYADSVKGRFTISRDNAKNTVYLKMNSLKPEDTAVYYCAKLIGRWRLYHTFVKGDYWGQGTQVTVSS | high polyreactivity
QVQLVESGGGLVQAGGSLRISCAPSGFTFIYYDMGWYRQAPGKERELVAAINRGGNTYYADSVKGRFTISRDNAKNTVFLLMNSLKPEDTAVYYCNARSYRRGTWYNSWGQGTKVTVSS | high polyreactivity
QVQLVESGGGLVQAGGSLRLSCAASGRTFYNYAMGWYRQAPGKERELVAAIRGSGGSTYYADSVKGRFTISRDNAKNTVYLQMNSLKPEETAVYYCNAVSQSSEYDYWGHGTQVTVSS | high polyreactivity
QVQHVESGGGLVQAGGSLRLSCAASGRIINTYAMGWYRPAPGKERELVAAISWSGGSTYYADSVKGRFTISRDNAKNTVDLQMNSLKPEDTAVYYCNAAYYGYENLSKRGYWGQGTQVTVSS | high polyreactivity
QVQLVESGGGLVQAGGSLRLSCAASGRTFRFYAMGWYRQAPGKERELVAAITYGGGSTYYADSVKGRFTISRDNAKNTVYLQMNSLKPEDTAVYYCAARAGRVPSWSGRTRYYYGGQGTQVTVSS | high polyreactivity
QVQLVESRGGLVQAGGSLRLSCAASGSTFDGNAMGWYRQAPGKERELVAAISIGGSTSYADSVKGRFTISRDNAKNTVYLQMNSLNPEDTAVYYCAADRYRTFYQWKRYRYDYWGQGTQVTVSS | high polyreactivity
QVQLVESGGGLVQAGGSLRLSCAASGFIFGRYAMGWYRQAPGKERELVAAISRSGGSTHYADSVKGRFTISRDNAKNTVYLQMISLKPEDTAVYYCAAVWPFDRSRMDYWGQGTQVTVSS | high polyreactivity
